Results on 30 sequences are retold here after the nanobody polyreactivity screen of Harvey et al. (2022).

This data set can be described thus: yeast display, Sf9 membrane polyspecificity reagent, FACS + sequencing; frameworks hold sequencing errors. In a few lines: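 After 36–48 hours of galactose induction, yeast (Saccharomyces cerevisiae BJ5465) displaying a synthetic nanobody library were stained at 4 °C for 1 hour with 10% biotinylated, detergent-solubilized Sf9 membrane reagent. Streptavidin microbeads enriched the stained cells before FACS sorting into low and high (top ~1%) gates on anti-HA and streptavidin fluorescence. Each clone's polyreactivity label reflects its gate of origin.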
On to “QVQLVESGGGLVQAGGSLRLSCAASGSILSRYAMGWYRQAPGKERELVATITRRGGSTFYADSVKGRFTISRDNAKNTVYLQMNSLKPEDTAVYYCAVGRLFWGQGTQVTVSS”, for which the “polyreactivity (PSR sort gate)” value is recorded as “low polyreactivity”.
Next, “QVQLVESGGGLVQAGGSLRLSCAASGSILSTYSMGCYRQAPGKERELVASISSNAGSTYYADSVKGRFTISRDNAKNTVYLQMNSLKPEDTAVYYCNKVYGGGTYDYWGQGTQVTVSS”: “low polyreactivity”; “QVQLVESGGGLVQAGGSLRLSCAASGSILTINAMGWYRQAPGKERELVARITISSGSTYYADSVKGRFTISRDNAKNTVYLQMNSLKPEDTAVYYCATDGRSNYYWGDYWGQGTQVTVSS”: “low polyreactivity”.
“QVQLVESGGGLVQAGGSLRLSCAASGSILTRNAMGWYRQAPGKERELVAAISGGGGRTYYADSVKGRFTISRDNAKNTVYLQMNSLKPEDTAVYYCAADDGYSSNEYDYWGQGTQVTVSS”: the “polyreactivity (PSR sort gate)” value is listed as “low polyreactivity”.
Then “QVQLVESGGGLVQAGGSLRLSCAASGSILTRNAMGWYRQAPGKERELVAAISYSGVRTYYADSVKGRFTISRDNAKNTVYLQMNSLKPEDTAVYYCNAVISSRYDYWGQGTQVTVSS”, with “high polyreactivity”; and “QVQLVESGGGLVQAGGSLRLSCAASGSILTVYAMGWYRQAPGKERELVARIRSGDRTYYADSVKGRFTISRDNAKNTVYLQMNSLKPEDTAVYYCAAGSQRRYYHTNWDSFNYWGQGSQVTVSS”, with “low polyreactivity”; and “QVQLVESGGGLVQAGGSLRLSCAASGSILVANGMGWYRKAPGKERELVAGITTRGGNTYYADSVKGRFTISRDNAKNTVYLQMNSLKPEDTAVYYCATDLIGVWYWYEYWGQGTQVTVSS”, with “low polyreactivity”.
Then “QVQLVESGGGLVQAGGSLRLSCAASGSILVGNPMGWYRQAPGTERELVAAISKSGSSTHYADSVKGRFTISRDNAKNTFYLQMNSLKPEDTAVYYCNAVGRVYRAKYDYWGQGTQVTVSS”, with “high polyreactivity”; and “QVQLVESGGGLVQAGGSLRLSCAASGSILVNMGWSRQAPAKERELVAAIRYGGGRTYYADSVKGRFTISRDNAKNTVYLQMNSLKPEDTEVYYCAKKYIWVWAPAKQYGFDSWGQGTQVTVSS”, with “low polyreactivity”; and “QVQLVESGGGLVQAGGSLRLSCAASGSILVPNAMGWYRQAPRKERELVAGISANGGSTYYADSVKGRFTISRDNAKNTVYFQMNSLKPEDTAVYDCNARLYWDWYGDDYWGQGTQVTVSS”, with “low polyreactivity”.
As to “QVQLVESGGGLVQAGGSLRLSCAASGSILVPYTMGWYRQAPGKERELVASISYSGGTTYYADSVKGRFTISRDNAKNTVYLQMNSLKPEDTAVYYCAADWDESYSYRRYRHYNYWGQGTQVTVSS”, the “polyreactivity (PSR sort gate)” value is “low polyreactivity”.
Then “QVQLVESGGGLVQAGGSLRLSCAASGSILWENAMGWYRQAPGKERELVATISVSGGGTYYADSVKGRFTISRDNAKNTVYLQMNSLKPEDTAVYYCNARYGNESQGWEDYWGQGTQVTVSS”, with “low polyreactivity”; and “QVQLVESGGGLVQAGGSLRLSCAASGSILWHYAMGWYRQAPGKERELVAAISGSGRTNYADSVKGRFTISRDNAKNTVYLQMNSLKPEDTAVYYCARVHGTSESKYYYWGQGTQVTVSL”, with “low polyreactivity”; and “QVQLVESGGGLVQAGGSLRLSCAASGSILWLYVMGWYRQAPGKERELVATITSSGGSTYYADSVKGRFTISRDNAKNSVYLQMNSLKPEDTAVYYCAADYSRDEYDYWGQGTQVTVSS”, with “low polyreactivity”.
Then “QVQLVESGGGLVQAGGSLRLSCAASGSILWSYAMGWYRQAPGKERELVAAIRSGGSTYYADSVKGRFTISRDNAKNTVYLQMNSLKPEDTAVYYCNATYAPLFEYDYWGQGTQVTVSS”, with “low polyreactivity”; and “QVQLVESGGGLVQAGGSLRLSCAASGSILYPYAMGWYRQAPGKERELVAAISSDGSTYYADSVKGRFTISRDNAKNTVYLQMNSLKPEDTAVYYCNADIGPRYDYWGQGTQVTVSS”, with “high polyreactivity”.
Next, “QVQLVESGGGLVQAGGSLRLSCAASGSILYTYAMGWYRQAPGKERELVAAISRGGGSTYYADSVKGRFTISRDNAKNTVYLQMNSLKPEDTAVYYCAARKLTRGTGRDDEYWGQGTQVTVSS”: “high polyreactivity”; “QVQLVESGGGLVQAGGSLRLSCAASGSILYVYAMGWYRQAPGKERELVAAISFSGGSTYYADSVKGRFTISRDNAKNTVYLQMNSLKPEDTAVYYCAADVSYDIYVEYDYWGQGTQVTVSS”: “low polyreactivity”.
Turning to “QVQLVESGGGLVQAGGSLRLSCAASGSILYWYAMGWYRQAPGKERELVAGIDWSGGSTYYADSVKGRFTISRDNAKNTVYLQMNSLKPEDTAVYYCNAVQNRGRGSHRGESTYYYWGQGTQVTVSS”, the “polyreactivity (PSR sort gate)” value is recorded as “low polyreactivity”.
Then “QVQLVESGGGLVQAGGSLRLSCAASGSILYYNAMGWYRQAPGKEREFVAAISDSGSSTYYADSVKGRFTITRDNAKNTVYLQMNSLKPEDTAVYYCNTEIYVDIISDYGYWGQGTQVTVSS”, with “low polyreactivity”; and “QVQLVESGGGLVQAGGSLRLSCAASGSILYYYAMGWYRQAPGKERELVAAISSGGSTYYADSVKGRFTISRDNAKNTVYLQMNSLKPEDTAVYYCAARRDNPWAKAPRYKMYYWGQGTQVTVSS”, with “high polyreactivity”.
Consider “QVQLVESGGGLVQAGGSLRLSCAASGSIMSYYAMGWYRQAPGQVREFVAAISSGGGTYYADSVKGRFTISRDNAKNTVYLQMNSLNAEDTAVFYCNADHASSIQFEYWGQGTQVTVSS”, for which the “polyreactivity (PSR sort gate)” value was “low polyreactivity”.
Consider “QVQLVESGGGLVQAGGSLRLSCAASGSIQTLYAMGWYRQAPGKERELVAAITSGDRTNYADSVKGRFTISRDNAKNTVYLQMNSLKPEDTAVYYCATKRWWGRYDYWGQGTQVTVSS”, for which the “polyreactivity (PSR sort gate)” value is “high polyreactivity”.
On to “QVQLVESGGGLVQAGGSLRLSCAASGSIRRYAMGWYRQAPGKERELVAAISGSGVSTYYADSVKGRFTISRDNAKNTVYLQMNSLKPEDTAVYYCAAAAIYFRYDYWGQGTQVTVSS”, for which the “polyreactivity (PSR sort gate)” value is reported as “high polyreactivity”.
For the sequence “QVQLVESGGGLVQAGGSLRLSCAASGSISAAYAMGWYRQAPGKERELVADISSSGVSTYYADSVKGRFTISRDNAKNTVYLQMNSLKQEDTAVYYCAKNRVAGYRKYDYWGQGTQVTVSS”, the “polyreactivity (PSR sort gate)” value is on record as “low polyreactivity”.
Then “QVQLVESGGGLVQAGGSLRLSCAASGSISAQNAMGRYRQAPGKERELVATINSGGRTNYADSVKGRFTISRDNAKNTVYLQMNSLNPEDTAVYYCNTVVRGAYTYGDVSKYDYWGQGNQVTVSS”, with “low polyreactivity”.
As to “QVQLVESGGGLVQAGGSLRLSCAASGSISDVYAMGWYRQAPGKERELVAAYADSVKGRFTISRDNAKNTVYLQMNCLKPVDTAVYYCNFVETSQELGWQAFDYWGQGTQVTVSS”, the “polyreactivity (PSR sort gate)” value was “low polyreactivity”.
Next, “QVQLVESGGGLVQAGGSLRLSCAASGSISFSNAMGWYRQAPGKERELVASITSGGSTKYADSVKGRFTISRDNAKNTVYLQMNSLKPEDTAVYYCAADGYDYWGQGTQVTVSS”: “low polyreactivity”; “QVQLVESGGGLVQAGGSLRLSCAASGSISGGYAMGWYRQAPGKERELVAVIDSGGSTYYADSVKGRFTISRDNAKNTVYLQMNSLKPEDTAVYYCNADYSSQDNFDYWGQGTQVTVSS”: “low polyreactivity”.
Then “QVQLVESGGGLVQAGGSLRLSCAASGSISGRNTMGWYRQAPGKERELVAAISWSGGSTYYADSVKGRFTISRDNAKNTVYLQMNSLKPEDTAVYYCAARNWRGVGGGVGRYGYWGQGTQVTVSS”, with “high polyreactivity”.
